Where a chain is given by its changes, count along the chain named.
B1: c11422 (antibody, V domains shown)
VH: EARLVESGGGRVQPGGSLRLSCEASGFRFSSYSFNWVRQSPGKGLEWLAKISASPFGRSQINYAHSVEGRFIISRDNDGNSLRLQMNDLRGADTGVYYCARAPWQERNLDYNYAMDVWGQGTTVIVSS
VL: ELVLTQSPGTLSLSPGERATVSCRASQSLRRDSLAWYQQKPGHSPRLLIFAASNRVPGIPYRFSGSGSGTQFTLTIDKMEPEDFAVYYCQTYGSSPLYTFGQGTKLDIN
B2: c11405 (antibody, V domains shown)
VH: B1 VH with N35T, I61V, I72T, G79R, N108S
VL: B1 VL with S66T, D77E, T91S
B3: c5275 (antibody, V domains shown)
VH: QGQLVESGGGVVQPGTSLRLSCKASGFSFSNHVMHWVRQAPGKGLEWVAAIWDDGSNQYYRDSVKGRFTISRDNSKNTLFLQMSSLTVQDTAIYFCARRMSAVGTIFAYFNYGMDVWGRGTTVIVSS
VL: EVVLTQSPGTLSLSPGERGTLSCRASQHLSDSSLAWYQQKPGQAPRLLIYAASRRATGIPDRFSGSGSGTDFTLTISRLDPDDFAVYYCQHYGNSPVITFGQGTRLDIK
B4: c5237 (antibody, V domains shown)
VH: QVQLQESAPRLVKTSETLSLTCTVSGSHFYPYFYSWIRQSPGGKLQWIGRMYSTTGSMRTNPSLHTRVGMPLDHSRSQIGLTMSSMTAADTGIYYCVRDIMREFDSVDGSGGIYGGVDVWGRGTTVTVSS
VL: QFVLTQPPSVSGSPGKTVIISCTRSGGTFARNSVRWYLQRPGEIPTTVFFDGNRRASGIPDRFSASIGVSSTSASLTISGLTPEDEADYYCESSDGGHHVVFGGGTKVTVL
B5: c8540 (antibody, V domains shown)
VH: QVQLLQSGPEVKKPGASVKVSCKTSGYTFTSYAITWVRQAPGEGLEWLGWISPHSRTAKYAQKFQGRLTMTTDTSTATAYMDLRSLSPDDTAVYYCARRIYDWDIERARFDPWGQGTLVAVSS
VL: QSVLTQPPSVSADPGQRVTISCSGSSSNIGKNFVSWYQQLPGTAPKLVIYDNDRRPSGIPDRFSGSKSGTSATLGITGLQTGDEAAYYCATWDSGLNDGPVFGGGTRLTVL
B6: c29323 (antibody, V domains shown)
VH: QVQLQESGPGLVRPSETLSLTCVVSGDSITRNYWSWLRQPPGKTLEWIGFMYDSGTVNYNPSLQSRVSISVDTSNNQFFLRLTSVTAADTAVYYCARHPSRGSDYDSATGDTYYYYYGMDVWGPGTSVVVSS
VL: DIQLTQSPPSLSASVGDRIVISCRATRDIGTSLNWYQQKPGQSPKLLIVAASTLESGVPSRFSAAGSATHFTLTISALQHDDVATYFCQQYLSLPLTFSGGTRVDLR
B7: c9488 (antibody, V domains shown)
VH: QVQLVQSGSEVKKPGASVKVSCKASDYTFPNFGISWLRQAPGQGLEWMGWIRGSDGETNYAQKFKDRVTLTTERSRGTAYMELRSLISDDTAVYYCARDLKWDCSKRGCPDYQWFDIWGQGTLVTVSS
VL: DVVMTQSPLSLPVTLGQPASISCISSHSLVYTDGNTYLAWFQQRPGQSPRRLIYTVSKRDSGVPDRFSGSGSGTDFTLKISRVEAEDVGIYFCMQGRHWPYTFGQGTTLEIK
B8: c24148 (antibody, V domains shown)
VH: QVEVQESGPGLVKPSETLSLTCSVSGGSITGYYWSWIRQAPGKGLEWIGFISPGGSARYNPSLKSRVTISKDASTNQVSLRLISVTASDTAVYFCVRDGAAGNNWGYNYYGMDVWGQGTTVTVSS
VL: DIQLTQSPSTLSASIGDRVTITCRASQSISVWLAWYQQKPGKAPNLLIYRASTLDSGVPSRFSGSGSGTEFTLTISSLQPDDLGTYYCQHYDTPSRTFGPGTKVEIT
B9: c5392 (antibody, V domains shown)
VH: ELQLKESGPGLVKPSETLSLTCAVSGGPMCADWCFYYHWNWVRLSAEKGLEWMGRIHISGTAEYNPSFKGRATISLDISKNELSLTMTSLAAADTAVYFCARSGGNFHPTYFYMMDIWGRGTTVVVSS
VL: DIQMTQSPSTLYASLGETVTITCRASQNIKKWLAWYQMRPGRAPRLLIYMATYRHDADSARYIGSESGGEFTLTIKSLRPDDFGTFYCQQYGAQPWTFGQGTRLEVK
B10: c5338 (antibody, V domains shown)
VH: HVRLEQWGPGLLKPSETLSLSCVVHGESFDPYSWTWIRQSPKMGPQWLGEIRPFGETVYNPSLSGRLSLSRDNSKRLISLRLTSVSAADSAVYFCARGPVIYEVPYFWYRGLNVWGPGTTVVVST
VL: DVVVTQSPLSVSVTPGESATILCKSSHSLRHDNGMHYLDWYLQKPGQSPQLLIYLSSNRASGVPDRFIGSGSGTDFTLKISRVEAEDVGMYFCMQGRQDPRIFGRGTRLEIK
B11: c2518 (antibody, V domains shown)
VH: QVRLHQWGEGLLRPSDTLTLSCSLSGNVFYNTFFNWVRQSPGRGLEWIAEVSFAGEWTFNPSLRSRVTTQVDGFTYRVSLFLKSMTAADAGVYYCASGGGSFDVDSWGPGIRVTVSS
VL: EIVLTQTPLSSPVSLGQSASISCRSSQSLRHNNGNTYLSWFQQRPGQPPRLLIRKISDRFSGVPNRFSGSGAGTDFTLRIDRVEPEDVGTYYCLQATQFPWTFGQGTTVDIK
B12: c8395 (antibody, V domains shown)
VH: AVQFLQSGAEVKKPGESLKISCQDRGYGFNDYWIAWVRQMPGKGLEWMGLIYPDDSDTRYSPSFQGQVTILADKSINTAYLQWNSLKASDSAIYYCARLMVVDERSENTFDIWGQGTVVTVFS
VL: SSGLAQSPSLSVSPGQTATVTCSGDPLVNHFASWYQQQPGQSPILVIYQDNQRPSGIPERFSGSKTGNTATLTIGETQAADEADYFCQSWDITTAGMIFGGGTKLTVL
B13: c9497 (antibody, V domains shown)
VH: QVQLVQSGAEVKKPGSSVKVSCKASGGSFSDYGISWVRQAPGQGLEWMGGIIPGLETTKFAQGLQGRLTMTADESSTTAYMVLTRLRSQDTAVYYCATTGQQNDYYSSGTSYKLNYYFGMDVWGQGTTVTVSS
VL: QSVLTQPPSSSGTPGQRVTITCSGGSSNIETNSVNWYQQLPGAAPKTVISATHQRPSGVPDRFSASKSGASASLAISGLQSEDEADYYCAVWDDSLHAWVFGGGTKVTVL
B14: c1174 (antibody, V domains shown)
VH: QVRLHQWGEGLLRPSDTLSLTCSLSGNVFYRTFFNWIRQSPGKGLEWIAEVSFTGDWTYNPSLKSRVTTYVDGFKYHVSLQMSSMTAADAGVYYCASGGGSFDVDSWGQGIRVTVSS
VL: EIVLTQTPLSSSVTLGQSASISCRSSQSLQHSNGNTYLSWFQQRPGQPPRLLIRKISNRFSEVPDRFSGSGSGTDFTLTIDRVEPEDVGTYYCVQATQFPWTFGQGTTVDIT
B15: c1134 (antibody, V domains shown)
VH: B14 VH with R31E, T54A, T58N, V78A, S97A, D105H
VL: B14 VL with T7A, S18A, R24T, S26N, Q27H, F60G, E62G, D75H

biological target: HIV-1 NL4-3 Env on infected cells (HIV-1 group M subtype B, NL4-3 (pNL4-3 …, strain))

Row | Binder | binding result
1 | B1 | binds
2 | B2 | binds
3 | B3 | binds
4 | B4 | binds
5 | B5 | binds
6 | B6 | binds
7 | B7 | binds
8 | B8 | binds
9 | B9 | binds
10 | B10 | binds
11 | B11 | binds
12 | B12 | binds
13 | B13 | binds
14 | B14 | binds
15 | B15 | binds
